Reference: US20100047170

What was measured:
[1] = biological target: DQ Bovine Serum Albumin, fluorescent quenched (UniProt P02769)
[2] = test system: DQ Gelatin from pig skin, fluorescein conjugate (Invitrogen)
[3] = biological target: DQ collagen, type I from bovine skin, fluorescein conjugate (Invitrogen) (UniProt P02453)
[4] = test system: DQ collagen, type IV from human placenta, fluorescein conjugate (Invitrogen)

Measured: hydrolysis of FITC-quenched protein (fluorescence increase)

DQ collagen, type I from bovine skin, fluorescein conjugate (Invitrogen), sequence (P02453 162-1217, chain 1 of 2): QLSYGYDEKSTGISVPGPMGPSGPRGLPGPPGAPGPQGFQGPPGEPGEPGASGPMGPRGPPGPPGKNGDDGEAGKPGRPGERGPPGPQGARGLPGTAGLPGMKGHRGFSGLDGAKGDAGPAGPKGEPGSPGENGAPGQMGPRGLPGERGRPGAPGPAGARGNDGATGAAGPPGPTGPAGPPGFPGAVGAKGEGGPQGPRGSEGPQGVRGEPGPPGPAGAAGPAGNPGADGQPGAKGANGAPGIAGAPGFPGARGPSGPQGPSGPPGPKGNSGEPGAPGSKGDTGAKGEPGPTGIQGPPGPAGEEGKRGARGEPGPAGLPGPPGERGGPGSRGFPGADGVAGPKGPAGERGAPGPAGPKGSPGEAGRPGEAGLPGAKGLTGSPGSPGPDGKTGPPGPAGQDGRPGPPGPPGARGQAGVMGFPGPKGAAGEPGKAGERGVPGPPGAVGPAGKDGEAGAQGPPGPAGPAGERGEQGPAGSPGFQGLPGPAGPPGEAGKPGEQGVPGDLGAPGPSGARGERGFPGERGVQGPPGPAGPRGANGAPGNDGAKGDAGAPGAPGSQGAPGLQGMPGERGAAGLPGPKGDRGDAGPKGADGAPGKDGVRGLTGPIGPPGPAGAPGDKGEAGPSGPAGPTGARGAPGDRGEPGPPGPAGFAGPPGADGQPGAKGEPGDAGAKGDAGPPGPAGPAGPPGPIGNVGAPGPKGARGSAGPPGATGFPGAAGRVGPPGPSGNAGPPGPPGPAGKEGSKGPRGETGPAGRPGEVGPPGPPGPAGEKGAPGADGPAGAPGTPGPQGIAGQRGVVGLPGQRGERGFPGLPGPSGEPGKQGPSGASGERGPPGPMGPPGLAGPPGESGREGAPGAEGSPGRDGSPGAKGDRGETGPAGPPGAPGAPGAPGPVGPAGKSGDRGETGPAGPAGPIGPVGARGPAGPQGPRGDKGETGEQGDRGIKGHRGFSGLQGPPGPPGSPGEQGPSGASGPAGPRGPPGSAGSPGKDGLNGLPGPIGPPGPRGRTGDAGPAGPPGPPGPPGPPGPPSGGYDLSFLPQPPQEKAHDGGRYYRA
DQ collagen, type I from bovine skin, fluorescein conjugate (Invitrogen), sequence (P02453 other isoform, or with tags, fused parts or gaps, chain 2 of 2): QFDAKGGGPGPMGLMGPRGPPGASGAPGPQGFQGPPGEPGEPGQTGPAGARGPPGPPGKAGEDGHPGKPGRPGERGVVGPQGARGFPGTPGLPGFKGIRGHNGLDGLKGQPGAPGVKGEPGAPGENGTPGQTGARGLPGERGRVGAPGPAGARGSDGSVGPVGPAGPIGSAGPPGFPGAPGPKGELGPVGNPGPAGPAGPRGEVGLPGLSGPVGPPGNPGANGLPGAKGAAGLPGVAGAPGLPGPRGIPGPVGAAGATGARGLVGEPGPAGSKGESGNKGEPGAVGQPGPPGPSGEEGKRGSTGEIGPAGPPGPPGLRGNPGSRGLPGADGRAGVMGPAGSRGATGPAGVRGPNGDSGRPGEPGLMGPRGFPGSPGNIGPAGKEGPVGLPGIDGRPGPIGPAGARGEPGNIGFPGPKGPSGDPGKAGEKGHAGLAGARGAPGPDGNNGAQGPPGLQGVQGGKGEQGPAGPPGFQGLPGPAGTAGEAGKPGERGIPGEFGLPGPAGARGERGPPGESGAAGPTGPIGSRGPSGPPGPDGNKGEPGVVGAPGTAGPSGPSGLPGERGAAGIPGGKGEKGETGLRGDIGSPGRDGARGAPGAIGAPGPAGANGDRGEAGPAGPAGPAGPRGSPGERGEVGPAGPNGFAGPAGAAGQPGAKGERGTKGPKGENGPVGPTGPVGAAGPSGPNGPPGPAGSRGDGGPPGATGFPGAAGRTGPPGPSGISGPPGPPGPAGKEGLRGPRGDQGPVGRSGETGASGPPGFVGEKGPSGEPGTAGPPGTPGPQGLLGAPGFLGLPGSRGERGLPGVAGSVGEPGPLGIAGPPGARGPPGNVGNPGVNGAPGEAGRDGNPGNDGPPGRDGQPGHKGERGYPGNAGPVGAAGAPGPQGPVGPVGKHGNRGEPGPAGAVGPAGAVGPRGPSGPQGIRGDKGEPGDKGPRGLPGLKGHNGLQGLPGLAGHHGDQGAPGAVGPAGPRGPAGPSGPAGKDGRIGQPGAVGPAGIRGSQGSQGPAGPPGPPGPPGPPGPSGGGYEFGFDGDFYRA
DQ Bovine Serum Albumin, fluorescent quenched, sequence (P02769 25-607): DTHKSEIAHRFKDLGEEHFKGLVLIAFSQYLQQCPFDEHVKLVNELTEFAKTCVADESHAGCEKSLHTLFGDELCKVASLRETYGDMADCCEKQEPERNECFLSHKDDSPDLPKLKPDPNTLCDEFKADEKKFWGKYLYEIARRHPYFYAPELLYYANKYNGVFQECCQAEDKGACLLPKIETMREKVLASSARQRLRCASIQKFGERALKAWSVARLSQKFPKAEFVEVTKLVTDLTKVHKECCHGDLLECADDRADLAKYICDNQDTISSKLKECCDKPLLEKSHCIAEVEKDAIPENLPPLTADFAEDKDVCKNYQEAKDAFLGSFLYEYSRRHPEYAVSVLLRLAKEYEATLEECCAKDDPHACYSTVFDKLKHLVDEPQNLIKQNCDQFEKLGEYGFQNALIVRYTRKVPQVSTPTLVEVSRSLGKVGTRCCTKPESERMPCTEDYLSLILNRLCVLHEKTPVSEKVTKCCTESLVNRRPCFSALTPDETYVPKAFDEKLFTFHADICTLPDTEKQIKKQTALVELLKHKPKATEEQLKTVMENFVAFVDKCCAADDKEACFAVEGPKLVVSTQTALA

His tagged extra cellular domain of Prostate Specific Membrane Antigen (PSMA), purified from S2 cells
no digestion of any of the proteins: all assays above
